What was measured:
[1] = biological target: authentic main protease (M^pro) from SARS-CoV, without tag (SARS-CoV) (UniProt P0C6X7); assay: SEC; […]; 40 mM Tris-HCl, 100 mM NaCl, 1 mM DTT, pH 8.0; 0.5 mL/min; […]
[2] = biological target: authentic main protease (M^pro) from SARS-CoV, without tag (SARS-CoV) (UniProt P0C6X7)
[3] = biological target: tagged main protease from SARS-CoV with 34 extra amino acids at the N-terminus (SARS-CoV) (UniProt P0C6X7)

Substance | stoichiometry N [1] | kcat/Km, FRET-based cleavage assay (Dabcyl/Edans peptide substrate) [2] | kcat/Km, FRET-based cleavage assay (Dabcyl/Edans peptide substrate) [3]
authentic main protease (M^pro) from SARS-CoV, without tag (from UniProt P0C6X7) (enzyme) | 2 | 2790 M⁻¹ s⁻¹ | 
tagged main protease from SARS-CoV with 34 extra amino acids at the N-terminus (from UniProt P0C6X7) (enzyme) |  |  | 17 M⁻¹ s⁻¹

Source: PMC10304930
